The target in the assay is ectodomain of the SFTSV Gn glycoprotein (amino acids 20-453), Gn-his (SFTSV). The experiment in a line: SPR. Background: SPR reads the build-up and loss of mass on a sensor chip optically.

As a reminder, the Kd is a measure of binding affinity in units of concentration. High values mean lower affinity, low ones higher affinity. Consider “Recombinant human LRP1 CLII-Fc (Fc fusion)”, for which the dissociation constant (Kd) came to 16.8 nM.

For the origin of these results see PMC12041282.
